Two molecules from US12570744 (AstraZeneca / MedImmune, dated 2026) can be followed below.

The target in test [1] is T1, human PD-1 expressed on the cell surface of engineered Jurkat cells (human, UniProt Q15116 25-288). The test can be described thus: cell-based or functional assay.
The target of test [2] is T2, human TIGIT expressed on the cell surface (human, UniProt Q495A1 22-244).
T2 sequence (looked up): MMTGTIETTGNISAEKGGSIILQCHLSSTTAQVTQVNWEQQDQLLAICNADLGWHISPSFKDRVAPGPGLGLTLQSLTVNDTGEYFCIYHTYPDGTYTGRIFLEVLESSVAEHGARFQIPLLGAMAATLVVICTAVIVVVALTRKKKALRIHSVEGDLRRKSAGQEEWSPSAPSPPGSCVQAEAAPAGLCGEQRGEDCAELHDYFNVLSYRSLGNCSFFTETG
The test can be described thus: cell-based or functional assay.

Test [3] concerns the target T3, human PD-1 and human TIGIT co-expressed on Jurkat PD-1^+TIGIT^+ cells (human, UniProt Q15116 25-288; Q495A1 22-244). In words: cell-based or functional assay.
Test [4] concerns the target T1, human PD-1 expressed on the cell …. In words: flow cytometry on PD-1^+ Jurkat cells.
In test [5] the target is T2, human TIGIT expressed on the cell …. In words: flow cytometry on TIGIT^+ Jurkat cells.
For test [6], the target named is T3, human PD-1 and human TIGIT co-expressed …. In words: flow cytometry on PD-1^+TIGIT^+ Jurkat cells, mean. An excerpt: (§1) TIGIT⁻ cells. […] MFI=geometric mean fluorescence intensity; PD-1=programmed cell-death protein 1; TIGIT=T cell immunoreceptor with Ig and immunoreceptor tyrosine-based inhibitory motif domains. Cellular binding to human single expressing cell lines: Jurkat PD-1⁻ TIGIT⁺ and Jurkat PD-1⁺TIGIT⁻ or human double expressing Jurkat PD-1⁺ TIGIT⁺. Test and control article antibodies were detected with fluorescently conjugated goat anti human IgG secondary antibody and evaluated by flow cytometry.

Test [7] deals with T1, human PD-1 expressed on the cell …. In words: flow cytometry on PD-1^+TIGIT^- Jurkat cells, mean.
Test [8] has as its target T2, human TIGIT expressed on the cell …. In words: flow cytometry on PD-1^-TIGIT^+ Jurkat cells, mean.
From the text: as §1

The target in test [9] is T1, human PD-1 expressed on the cell …. In words: flow cytometry on PD-1^+ Jurkat cells, Experiment #1.
Test [10] shares this target. In words: flow cytometry on PD-1^+ Jurkat cells, Experiment #2.
Test [11] deals with T2, human TIGIT expressed on the cell …. The test can be described thus: flow cytometry on TIGIT^+ Jurkat cells, Experiment #1.
The target is the same in test [12]. In words: flow cytometry on TIGIT^+ Jurkat cells, Experiment #2.
Test [13] concerns the target T3, human PD-1 and human TIGIT co-expressed …. The test can be described thus: flow cytometry on PD-1^+TIGIT^+ Jurkat cells, Experiment #2.
From the text: as §1

For test [14], the target named is T1, human PD-1 expressed on the cell …. In words: flow cytometry on PD-1^+TIGIT^- Jurkat cells, Experiment #1.
Test [15] shares this target. In words: flow cytometry on PD-1^+TIGIT^- Jurkat cells, Experiment #2.
Test [16] deals with T2, human TIGIT expressed on the cell …. In words: flow cytometry on PD-1^-TIGIT^+ Jurkat cells, Experiment #1.
From the text: as §1

For test [17] the target is unchanged. In words: flow cytometry on PD-1^-TIGIT^+ Jurkat cells, Experiment #2.
From the text: as §1

Test [18] deals with T1, human PD-1 expressed on the cell …. The test can be described thus: flow cytometry on PD-1^+ Jurkat cells, mean of two experiments.
Test [19] addresses T2, human TIGIT expressed on the cell …. The test can be described thus: flow cytometry on TIGIT^+ Jurkat cells, mean of two experiments.
The target of test [20] is T4, cyTIGIT (cynomolgus TIGIT, recombinant) (cynomolgus, UniProt A0A7N9I9V4 89-209).
T4 construct: Ligand in the BIAcore assay; The construct is not described
T4 sequence (A0A7N9I9V4 entry or part of it): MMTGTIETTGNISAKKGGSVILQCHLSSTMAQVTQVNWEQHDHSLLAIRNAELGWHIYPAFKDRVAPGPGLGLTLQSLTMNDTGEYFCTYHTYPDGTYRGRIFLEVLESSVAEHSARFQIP
In words: SPR (BIAcore T200), PD-1/TIGIT DuetMab sample, cyTIGIT as ligand. The method, then: (§2) Binding experiments were carried out using a BIAcore T200 instrument (BIAcore).

Test [21] has as its target T5, recombinant human TIGIT protein (human, UniProt Q495A1 22-141).
T5 construct: In the Octet assay it was used biotinylated on streptavidin sensors or in solution; Construct and tags are not described; also called huTIGIT; human TIGIT antigen
T5 sequence (looked up): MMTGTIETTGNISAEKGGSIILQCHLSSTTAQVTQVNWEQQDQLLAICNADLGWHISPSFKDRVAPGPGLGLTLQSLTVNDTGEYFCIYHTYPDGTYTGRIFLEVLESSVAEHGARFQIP
The test can be described thus: SPR (BIAcore T200), PD-1/TIGIT DuetMab sample, huTIGIT as ligand. The method, then:
as §2

Test [22] deals with T6, muTIGIT (mouse TIGIT, recombinant) (mouse (printed as 'mu'), UniProt P86176 29-148, limits assumed).
T6 construct: Ligand in the BIAcore assay; The construct is not described
T6 sequence (looked up): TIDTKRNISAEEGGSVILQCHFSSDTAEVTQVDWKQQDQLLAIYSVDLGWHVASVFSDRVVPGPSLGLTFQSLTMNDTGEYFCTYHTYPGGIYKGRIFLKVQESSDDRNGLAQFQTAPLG
In words: SPR (BIAcore T200), PD-1/TIGIT DuetMab sample, muTIGIT as ligand. The method, then:
as §2

The target in test [23] is T3, human PD-1 and human TIGIT co-expressed …. The test can be described thus: flow cytometry on PD-1^+TIGIT^+ Jurkat cells, Experiment #1; PD-1^+TIGIT^+ Jurkat cells, Experiment #1.
From the text: as §1

In test [24] the target is T2, human TIGIT expressed on the cell …. The test can be described thus: flow cytometry (MFI) on 293 cells overexpressing human TIGIT; Kd row of the table under the graph, the concentration axis is [nM].
For test [25], the target named is T7, cynomolgus TIGIT overexpressed on 293 cells (cynomolgus, UniProt A0A7N9I9V4 89-312).
T7 construct: whole, on cells
T7 sequence (A0A7N9I9V4 entry or part of it): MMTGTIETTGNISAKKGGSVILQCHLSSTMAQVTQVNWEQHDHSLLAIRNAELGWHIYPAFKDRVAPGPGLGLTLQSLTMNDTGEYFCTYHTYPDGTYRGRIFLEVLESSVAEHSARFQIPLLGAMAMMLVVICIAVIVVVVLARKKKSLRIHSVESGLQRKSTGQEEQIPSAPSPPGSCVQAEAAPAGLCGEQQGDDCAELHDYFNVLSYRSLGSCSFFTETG
In words: flow cytometry (MFI) on 293 cells overexpressing cynomolgus TIGIT; Kd row of the table under the graph, the concentration axis is [nM].

Test [26] concerns the target T1, human PD-1 expressed on the cell …. The test can be described thus: flow cytometry on PD-1^+ Jurkat cells (the reference itself).

T1 sequence (Q15116 25-288, change not shown): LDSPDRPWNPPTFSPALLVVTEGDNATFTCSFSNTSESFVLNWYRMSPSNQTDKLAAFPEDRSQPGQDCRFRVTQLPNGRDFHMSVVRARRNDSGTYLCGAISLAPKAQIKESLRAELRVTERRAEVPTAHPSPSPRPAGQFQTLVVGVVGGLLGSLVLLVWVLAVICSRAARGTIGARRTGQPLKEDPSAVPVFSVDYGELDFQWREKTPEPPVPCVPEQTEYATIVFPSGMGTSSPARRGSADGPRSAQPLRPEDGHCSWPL
T3 sequence (Q15116 25-288, one chain of several): as the sequence (Q15116 25-288, change not shown) above

B1: AZD2936 (PD-1/TIGIT bispecific DuetMab, LO115/VAR1 VHGL-VLGL(M-I)) (bispecific antibody, human IgG1, kappa, lambda)
heavy 1: EVQLVESGGGLVQPGGSLRLSCAASGFTFSDYGMHWVRQAPGKGLEWVAYISSGSYTIYSADSVKGRFTISRDNAKNSLYLQMNSLRAEDTAVYYCARRAPNSFYEYYFDYWGQGTTVTVSSASTKGPSVFPLAPSSKSTSGGTAALGCLVKDYFPEPVTVSWNSGALTSGVHTFPAVLQSSGLYSLSSVVTVPSSSLGTQTYICNVNHKPSNTKVDKRVEPKSCDKTHTCPPCPAPEFEGGPSVFLFPPKPKDTLMISRTPEVTCVVVDVSHEDPEVKFNWYVDGVEVHNAKTKPREEQYNSTYRVVSVLTVLHQDWLNGKEYKCKVSNKALPASIEKTISKAKGQPREPQVCTLPPSREEMTKNQVSLSCAVKGFYPSDIAVEWESNGQPENNYKTTPPVLDSDGSFFLVSKLTVDKSRWQQGNVFSCSVMHEALHNHYTQKSLSLSPGK
light 1: QIVLTQSPATLSLSPGERATLSCSASSKHTNLYWSRHMYWYQQKPGQAPRLLIYLTSNRATGIPARFSGSGSGTDFTLTISSLEPEDFAVYYCQQWSSNPFTFGQGTKLEIKRTVAAPSVFIFPPSDEQLKSGTASVVCLLNNFYPREAKVQWKVDNALQSGNSQESVTEQDSKDSTYSLSSTLTLSKADYEKHKVYACEVTHQGLSSPVTKSFNRGEC
heavy 2: not shown
light 2: not shown
notes: also called VAR1 (LO115/VHGL-VLGL(M-I)); VL GL (CDRL1 M-I) + VH GL
B1: the “EC50 (nM), NFAT-luciferase reporter, Experiment #1” value in [1] came to 4.7 nM; in test [2], 17 nM; in test [3], 5.57 nM. Further, the “EC50 (nM), NFAT-luciferase reporter, Experiment #2” value was found to be 3.83 nM in [1], 13.7 nM in test [2] and 6.07 nM in test [3]. The “Fold Change of Mean EC50 vs. Anti-PD-1” value in [1] is 1.4 fold. For the same molecule, the “Mean EC50 (nM), NFAT-luciferase reporter” value in test [1] stood at 4.26 nM; in [2], 15.3 nM; in test [3], 5.82 nM. For the same molecule, the “Fold Change of Mean EC50 vs. Anti-TIGIT” value in test [2] came out at 6.89 fold. For the same molecule, the “Fold Change of Mean EC50 vs. Anti-TIGIT and Anti-PD-1 combination” value in test [3] is 0.93 fold. Moreover, the “Fold Change vs. anti-PD-1 (mean EC50)” value in test [4] amounted to 4.82 fold. Besides, the “Fold Change vs. anti-TIGIT (mean EC50)” value in test [5] stood at 2.85 fold. Also, the EC50 in test [6] was 0.632 nM; in test [7] it was 0.797 nM; in test [8] it was 0.314 nM; in test [9], 0.944 nM; in test [10], 5.49 nM; in test [11], 0.303 nM. In addition, the EC50 came out at 0.375 nM in test [12]; 0.769 nM in test [13]; 0.584 nM in test [14]; 1.01 nM in [15]; 0.282 nM in [16]; 0.346 nM in test [17]. In addition, the figures for the EC50 in [18], in [19] and in test [23] were 3.22 nM, 0.339 nM and 0.495 nM, respectively. The dissociation constant Kd in [20] was found to be 41.1 nM; in [21], 0.015 nM; in test [22], 2.9 nM; in test [24], 3.42 nM; in [25], 19.9 nM. Besides, the figures for the koff in test [20], in [21] and in test [22] were 0.0411 s⁻¹, 6.57e-05 s⁻¹ and 0.00631 s⁻¹, respectively. In addition, the kon turned out to be 999000 M⁻¹ s⁻¹ in test [20], 4.37e+06 M⁻¹ s⁻¹ in test [21] and 2.17e+06 M⁻¹ s⁻¹ in test [22].

B2: monospecific anti-PD1 (LO115) bivalent mAb (antibody, V domains shown)
VH: EVQLVESGGGLVQPGGSLRLSCAASGFTFSDYGMHWVRQAPGKGLEWVAYISSGSYTIYSADSVKGRFTISRDNAKNSLYLQMNSLRAEDTAVYYCARRAPNSFYEYYFDYWGQGTTVTVSS
VL: QIVLTQSPATLSLSPGERATLSCSASSKHTNLYWSRHMYWYQQKPGQAPRLLIYLTSNRATGIPARFSGSGSGTDFTLTISSLEPEDFAVYYCQQWSSNPFTFGQGTKLEIK
notes: Bivalent mAb; also called bivalent anti-PD-1 antibody; parental bivalent anti-PD-1 antibody
Take B2: in [1], the “EC50 (nM), NFAT-luciferase reporter, Experiment #1” value turned out to be 1.93 nM; the “EC50 (nM), NFAT-luciferase reporter, Experiment #2” value is 4.14 nM; the “Fold Change of Mean EC50 vs. Anti-PD-1” value was found to be 1 fold; the “Mean EC50 (nM), NFAT-luciferase reporter” value amounted to 3.03 nM. The molecule further displayed an EC50 in test [9] of 0.349 nM. In test [10], the EC50 turned out to be 0.985 nM. Moreover, the “Fold Change vs. anti-PD-1 (mean EC50)” value in [26] is 1 fold. Also, the response in test [18] was half-maximal at 0.667 nM (EC50).
